According to US20110287023A1 (AstraZeneca / MedImmune, published 2011):

Key:
[1] = target: T1, HMG1 B Box peptide amino acids 91-169; test: ELISA, HMG1 B Box peptide 91-169 coated at 10 ug/ml, antibody titrated, OD 450
T1 construct: also called HMG1 peptide 91-169
T1 peptide: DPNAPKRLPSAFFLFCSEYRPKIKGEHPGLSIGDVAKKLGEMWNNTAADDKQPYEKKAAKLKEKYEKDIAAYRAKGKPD
Method in brief: (§1)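 Plates blocked with 4% milk/PBS, or biotinylated peptides captured on avidin wells after 1% BSA blocking (30 min RT). Human anti-HMG1 antibodies titrated or serially diluted from 10 μg/ml, detected with anti-human IgG-HRP and TMB substrate, absorbance at 450 nm.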

[2] = target: T2, activated HMG1 from LPS stimulated THP-1 cells (human, UniProt P09429 1-215); test: cell-based or functional assay
T2 sequence (looked up): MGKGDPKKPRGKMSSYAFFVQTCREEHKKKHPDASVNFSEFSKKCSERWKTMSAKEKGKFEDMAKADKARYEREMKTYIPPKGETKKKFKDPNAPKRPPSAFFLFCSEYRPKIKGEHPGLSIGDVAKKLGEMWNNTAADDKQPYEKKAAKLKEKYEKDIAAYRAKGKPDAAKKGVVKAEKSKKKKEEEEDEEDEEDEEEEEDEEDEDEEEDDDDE

[3] = target: T3, recombinant HMG1 produced in E. coli as a calmodulin binding protein (CBP) fusion (human); test: cell-based or functional assay
[4] = target: T4, HMG1 B Box peptide amino acids 150-183; test: ELISA, HMG1 B Box peptide 150-183 coated at 10 ug/ml, antibody titrated, OD 450
T4 peptide: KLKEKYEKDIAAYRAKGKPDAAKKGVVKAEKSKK
Method in brief: as §1

[5] = target: T3, recombinant HMG1 produced in E. coli as …; test: BIAcore 3000, mAb amine-coupled to CM5, HMG1 injected, steady-state model
Method in brief: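 Each mAb amine-coupled to a CM5 chip alongside a reference flow cell; two-fold serial dilutions of E. coli-expressed CBP-fusion HMG1 injected at slow flow. Surfaces regenerated with 1M NaCl-50 mM NaOH. Affinity derived from binding curves by a steady-state model.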

[6] = target: T5, HMG1 purified from calf (bovine) thymus (bovine, UniProt P10103 2-215); test: direct ELISA, calf thymus HMGB1 coated at 5 ug/mL, antibody at 10 ug/mL, anti-human kappa/lambda-HRP, OD 490
T5 construct: also called Calf thymus HMGB1; thymus HMG1
T5 sequence (looked up): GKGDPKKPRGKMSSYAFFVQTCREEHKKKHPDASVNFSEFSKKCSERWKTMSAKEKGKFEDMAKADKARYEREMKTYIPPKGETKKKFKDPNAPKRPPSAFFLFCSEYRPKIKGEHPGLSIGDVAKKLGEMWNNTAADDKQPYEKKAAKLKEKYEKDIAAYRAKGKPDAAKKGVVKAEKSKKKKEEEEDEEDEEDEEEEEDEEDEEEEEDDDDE
Method in brief: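 Calf thymus HMGB1 or HMGB2 coated at 5 ug/mL in 10 mM PBS pH 7.2 overnight at 4 °C; anti-HMGB1 antibody added at 10 ug/mL final in PBS + 1% BSA, 1 h at room temperature. Detection with HRP anti-human kappa plus lambda (1:1000, 1 h), OPD substrate 20-30 min in the dark, H₂SO₄ stop, absorbance 490 nm.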

[7] = target: T3, recombinant HMG1 produced in E. coli as …; test: ELISA, coated RAGE-Fc, rHMG1 preincubated with antibody
Description: HMG1 binding to RAGE-Ig by ELISA: 50 μl/well of RAGE-Fc fusion protein at 5 μg/ml in PBS was added to each well of an ELISA plate and incubated overnight at 4° C. The plate was then blocked with 200 μl of 5% milk at 37° C. for 1 hr and washed 3× with PBS/Tween. 50 μl/well of diluted HMGB1 solution. For dose curves, HMGB1 concentrations started at 4 ug/ml in PBS. For antibody blocking the HMGB1 was preincubated in another plate with human anti-HMG1 antibodies or buffer, then transferred to the RAGE-coated plate. The plates were then incubated at room temperature for 2 hours and washed 3×. To detect any HMG1 bound to the immobilized RAGE-Fc a mixture of biotinylated mouse anti-HMG1 mAbs (10D4, 4H11, 3E10 and 5C12) each at 1 ug/ml, total Ab: 4 ug/ml, were added to each well and the plate was incubated for 1 hour at room temperature. The plate was then washed and Strepavidin-HPR was added to each well and incubated 15 min. The plate was then washed 3× and blotted dry. 100 μl of TMB developing agent was added and the plate read at 650 nm. Values were calculated as percent of inhibition with HMG1 alone equal to 0% inhibition. The data in FIG. 9 and summarized in Table 1 represent the average of two separate experiments.

Binder | binding result [1] | IC50 nm IL-6 Native HMGB [2] [nM] | IC50 IL-6 [3] [nM] | IC50 NO [3] [µg/mL] | binding result [4] | Kd [5] [nM] | IC50 IL-1β [3] [µg/mL] | IC50 TNF-α [3] [µg/mL] | binding result [6] | percent inhibition of HMG1 binding to RAGE [7] [%] | IC50 IL-12 [3] [µg/mL]
human anti-HMG1 antibody E11 (antibody, IgG1, V domains shown, full length IgG1 made from a human Fab phage clone) VH: EVQLLESGGGLVQPGGSLRLSCAASGFTFSRYQMNWVRQAPGKGLEWVSSISPSGGHTHYADSVKGRFTISRDNSKNTLYLQMNSLRAEDTAVYYCAKDGRQGKISTVDHWGQGTLVTVSS VL: DIQMTQSPGTLSLSPGERATLSCRASQSVRSNFLAWYQQKPGQAPRLLIYGASRRASGIPDRFSGSGFGADFTLSISRLEPEDFAVYYCQQYGSSPNTFGQGSRVEIK | no binding (tested: 10 ug/ml (log 1.0)) | 1.73 | 1.22 | 101 | no binding (tested: 10 ug/ml (log 1.0)) | – | – | – | – | – | –
human anti-HMG1 antibody S6 (antibody, V domains shown, full length IgG1 made from a human Fab phage clone; two paragraphs print 'S4' for the PTA-6143 deposit; also called ATCC PTA-6143) VH: EVQLLESGGGLVQPGGSLRLSCAASGFTFSWYDMSWVRQAPGKGLEWVSRISPSGGYTMYADSVKGRFTISRDNSKNTLYLQMNSLRAEDTAVYYCARLEVGATSGGTAFDIWGQGTMVTVSS VL: not shown | no binding (tested: 10 ug/ml (log 1.0)) | – | 0.174 | 4.15 | no binding (tested: 10 ug/ml (log 1.0)) | 39 | 0.0232 | 0.0182 | binds | ≥ 35 | –
human anti-HMG1 antibody G4 (antibody, IgG1, V domains shown, full length IgG1 made from a human Fab phage clone; also called ATCC PTA-6258) VH: EVQLLESGGGLVQPGGSLRLSCAASGFTFSWYDMTWVRQAPGKGLEWVSSISPSGGYTKYADSVKGRFTISRDNSKNTLYLQMNSLRAEDTAVYYCTTEFYDYLDVWGKGTTVTVSS VL: DIQMTQSPGTLSLSPGEGATLSCRASQSVSSTYLAWYQQKPGQAPRLLIYEASKRATGTPARFSGSGSGTDFTLSISSLEPEDFAVYYCQHRHNWPPQWTFGQGTKVEVK | – | – | 0.9 | – | no binding (tested: 10 ug/ml (log 1.0)) | 30 | 5.01 | 5.51 | binds | – | 0.715
human anti-HMG1 antibody S16 (antibody, IgG1, V domains shown, full length IgG1 made from a human Fab phage clone; also called ATCC PTA-6259) VH: EVQLLESGGGLVQPGGSLRLSCAASGFTFSWYSMLWVRQAPGKGLEWVSYISPSGGFTNYADSVKGRFTISRDNSKNTLYLQMNSLRAEDTAVYYCARWDYNSGWYYDHWGQGTLVTVSS VL: DIQMTQSPDTLSLSPGERATLSCRASQSVNSRNLAWYQQKPGQAPRLLIYGASTRATGIPDRFSGSVSGTEFTLTISSLQPDDFATYYCQQYNSYFTFGQGTKLEIK | – | 38.9 | 0.56 | – | – | 23 | 6.05 | 1.44 | binds | ≥ 35 | 1.24
